The values below come from US9327008B2, “Cell-permeant peptide-based inhibitor of kinases” (Purdue Research Foundation, priority 2008, dated 2016).

Holding throughout (type): biochemical
In test [1] the test system is AMPK. Put plainly: Millipore radiometric kinase activity assay, AMPK (r). Particulars: rat AMPK. The protocol:
(§1) A commercial radiometric assay service (Millipore, Billerica, Mass.) was used to test the specificity and potency of peptides containing a coupled transduction domain and therapeutic domain, hereinafter “complete peptides”). In these assays, if the kinase is not inhibited by an inhibitor peptide, a positively charged substrate is phosphorylated with a radiolabeled phosphate group from an ATP.
In a final reaction volume of 25 AMPK (r) (5-10 mU) is incubated with 32 mM HEPES pH 7.4, 0.65 mM DTT, 0.012% Brij-35, 200 μM AMP, 200 μM […] [SEQ ID NO: 49], 10 mM MgAcetate and [γ-^33P-ATP] (specific activity approx. 500 cpm/pmol, concentration as required). The reaction is initiated by the addition of the MgATP mix. After incubation for 40 minutes at room temperature, the reaction is stopped by the addition of 5 μL of a 3% phosphoric acid solution. 10 μL of the reaction is then spotted onto a P30 filtermat and washed three times for 5 minutes in 75 mM phosphoric acid and once in methanol prior to drying and scintillation counting.
(§2) IC50 values for inhibitor peptides were determined using Millipore's IC50Profiler Express service. The IC50 value was estimated from a 10-point curve of one-half log dilutions. For peptides tested for specificity, the concentration of the peptides that inhibited approximately 95% of MK2 activity was chosen to profile against a battery of kinases related to MK2, cell viability, or human disease from MilliporeKinaseProfiler service. In both assays, compounds were supplied in dimethylsulfoxide (DMSO). Every kinase activity measurement was conducted in duplicate.
(§3) Therapeutic inhibitor peptides were assayed for activity against human kinases related to MK2, cell viability, or human disease. The assays were performed using concentrations of therapeutic inhibitor peptides that yielded 2% to 8% of normal MK2 activity. Error is reported as the standard deviation between 2 samples, and “c” is rat AMPK whereas all other kinases used are human kinases.

In test [2] the target is T1, BTK (Homo sapiens, UniProt Q06187).
T1 construct: purchased Millipore (assay service)
T1 sequence (Q06187 whole entry): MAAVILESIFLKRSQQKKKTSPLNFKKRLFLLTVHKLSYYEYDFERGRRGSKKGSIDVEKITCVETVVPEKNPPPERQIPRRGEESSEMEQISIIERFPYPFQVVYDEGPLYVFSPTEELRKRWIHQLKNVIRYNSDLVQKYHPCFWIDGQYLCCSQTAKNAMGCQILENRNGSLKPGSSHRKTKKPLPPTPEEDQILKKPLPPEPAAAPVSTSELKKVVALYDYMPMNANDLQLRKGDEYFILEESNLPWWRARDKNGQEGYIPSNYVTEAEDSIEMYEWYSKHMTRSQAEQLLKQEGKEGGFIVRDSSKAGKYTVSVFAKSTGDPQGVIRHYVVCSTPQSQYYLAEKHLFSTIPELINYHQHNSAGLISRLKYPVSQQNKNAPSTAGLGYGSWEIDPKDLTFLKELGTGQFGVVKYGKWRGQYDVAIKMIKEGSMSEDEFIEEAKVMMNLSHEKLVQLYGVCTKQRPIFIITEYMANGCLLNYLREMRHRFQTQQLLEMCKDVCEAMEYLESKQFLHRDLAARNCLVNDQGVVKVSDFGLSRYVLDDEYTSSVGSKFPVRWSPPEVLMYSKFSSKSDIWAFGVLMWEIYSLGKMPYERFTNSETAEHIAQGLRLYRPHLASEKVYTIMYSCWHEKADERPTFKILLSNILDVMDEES
The experiment in a line: Millipore radiometric kinase activity assay, BTK (h). An excerpt: A commercial radiometric assay service (Millipore, Billerica, Mass.) was used to test the specificity and potency of peptides containing a coupled transduction domain and therapeutic domain, hereinafter “complete peptides”). In these assays, if the kinase is not inhibited by an inhibitor peptide, a positively charged substrate is phosphorylated with a radiolabeled phosphate group from an ATP. […] The reaction is initiated by the addition of the MgATP mix. […] IC50 values for inhibitor peptides were determined using Millipore's IC50Profiler Express service. The IC50 value was estimated from a 10-point curve of one-half log dilutions. […] In both assays, compounds were supplied in dimethylsulfoxide (DMSO). Every kinase activity measurement was conducted in duplicate. Therapeutic inhibitor peptides were assayed for activity against human kinases related to MK2, cell viability, or human disease. […] Error is reported as the standard deviation between 2 samples, and “c” is rat AMPK whereas all other kinases used are human kinases.

The target in test [3] is T2, DYRK2 (Homo sapiens, UniProt Q92630).
T2 construct: purchased Millipore (assay service)
T2 sequence (Q92630 1-601): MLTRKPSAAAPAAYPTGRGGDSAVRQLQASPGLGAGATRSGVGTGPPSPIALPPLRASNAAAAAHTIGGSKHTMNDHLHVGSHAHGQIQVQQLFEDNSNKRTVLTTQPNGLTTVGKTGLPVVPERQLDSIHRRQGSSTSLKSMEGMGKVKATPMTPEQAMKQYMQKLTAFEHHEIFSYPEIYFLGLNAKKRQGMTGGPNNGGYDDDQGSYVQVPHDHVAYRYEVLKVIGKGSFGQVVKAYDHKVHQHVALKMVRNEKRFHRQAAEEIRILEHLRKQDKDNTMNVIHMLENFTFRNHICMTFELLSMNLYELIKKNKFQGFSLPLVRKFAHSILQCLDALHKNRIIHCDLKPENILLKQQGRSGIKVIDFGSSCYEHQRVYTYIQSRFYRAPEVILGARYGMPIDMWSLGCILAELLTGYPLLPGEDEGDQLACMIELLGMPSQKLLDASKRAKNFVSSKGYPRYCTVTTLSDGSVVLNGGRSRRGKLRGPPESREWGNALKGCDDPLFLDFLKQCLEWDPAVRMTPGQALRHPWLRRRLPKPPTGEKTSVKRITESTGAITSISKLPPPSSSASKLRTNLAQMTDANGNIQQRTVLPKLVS
Put plainly: Millipore radiometric kinase activity assay, DYRK2 (h). The method, then:
as §1
In a final reaction volume of 25 μL, DYRK2 (h) (5-10 mU) is incubated with 8 mM MOPS pH 7.0, 0.2 mM EDTA, 2 mg/mL casein, 10 mM MgAcetate and [γ-^33P-ATP] (specific activity approx. 500 cpm/pmol, concentration as required). The reaction is initiated by the addition of the MgATP mix. After incubation for 40 minutes at room temperature, the reaction is stopped by the addition of 5 μL, of a 3% phosphoric acid solution. 10 μL of the reaction is then spotted onto a P30 filtermat and washed three times for 5 minutes in 75 mM phosphoric acid and once in methanol prior to drying and scintillation counting.
as §2, §3

The target in test [4] is T3, EGFR (Homo sapiens, UniProt P00533).
T3 construct: purchased Millipore (assay service)
The experiment in a line: Millipore radiometric kinase activity assay, EGFR (h). The method, then:
as §1
In a final reaction volume of 25 μL, EGFR (h) (5-10 mU) is incubated with 8 mM MOPS pH 7.0, 0.2 mM EDTA, 10 mM MnCl2, 0.1 mg/mL poly(Glu, Tyr) 4:1, 10 mM MgAcetate and [γ-^33P-ATP] (specific activity approx. 500 cpm/pmol, concentration as required). The reaction is initiated by the addition of the MgATP mix. After incubation for 40 minutes at room temperature, the reaction is stopped by the addition of 5 μL of a 3% phosphoric acid solution. 10 μL of the reaction is then spotted onto a Filtermat A and washed three times for 5 minutes in 75 mM phosphoric acid and once in methanol prior to drying and scintillation counting.
as §2, §3

As for KAFAKLAARLYRKALARQLGVAA, the “AMPK Kinase Activity (%) (+SD %)” value in test [1] (peptide 100 μM) is 118 (7) %. Further, in test [2] (peptide 100 μM), the “BTK Kinase Activity (%) (+SD %)” value is listed as 16 (3) %. Moreover, in test [3] (peptide 100 μM), the “DYRK2 Kinase Activity (%) (+SD %)” value was −10 (0) %. Also, in test [4] (peptide 100 μM), the “EGFR Kinase Activity (%) (+SD %)” value is reported as 16 (1) %.
Regarding WLRRIKAWLRRIKALNRQLGVAA, the results for the “AMPK Kinase Activity (%) (+SD %)” value in test [1] (peptide 30 μM) and in test [1] (peptide 100 μM) were 36 (4) % and 101 (6) %, respectively. In addition, the “BTK Kinase Activity (%) (+SD %)” value is on record as 5 (0) % in test [2] (peptide 30 μM) and 19 (1) % in test [2] (peptide 100 μM). Further, the “DYRK2 Kinase Activity (%) (+SD %)” value in test [3] (peptide 30 μM) is recorded as 93 (8) %; in test [3] (peptide 100 μM), −11 (1) %. Besides, the “EGFR Kinase Activity (%) (+SD %)” value in test [4] (peptide 30 μM) was 10 (4) %; in test [4] (peptide 100 μM) it was 18 (2) %.
